Experiments:
[1] = molecular target: Alexa-488 maleimide-labeled α-synuclein (G132C) (human) (UniProt P37840); experiment: fluorescence polarisation
[2] = molecular target: Alexa-488 maleimide-labeled α-syn^ΔCTD (Δ104-140, A18C) (human) (UniProt P37840); experiment: fluorescence polarisation

| Substance | Kd [1] | fold rise of Kd on removing the CTD of α-syn [2] |
| --- | --- | --- |
| SARS-CoV-2 nucleocapsid protein with the NTD deleted (NP^ΔNTD) (domain or fragment) | 3670 nM | 4 fold |
| SARS-CoV-2 nucleocapsid protein with the CTD deleted (NP^ΔCTD) (domain or fragment) | 1850 nM | 3.5 fold |
